# Results from patent publication US20180141972.
# T1: Spycatcher-WELQ-Tem1 fusion protein (Spycatcher followed by a SplB protease site with a P1' methionine and the lactamase Tem1), P62593
# T1 chain: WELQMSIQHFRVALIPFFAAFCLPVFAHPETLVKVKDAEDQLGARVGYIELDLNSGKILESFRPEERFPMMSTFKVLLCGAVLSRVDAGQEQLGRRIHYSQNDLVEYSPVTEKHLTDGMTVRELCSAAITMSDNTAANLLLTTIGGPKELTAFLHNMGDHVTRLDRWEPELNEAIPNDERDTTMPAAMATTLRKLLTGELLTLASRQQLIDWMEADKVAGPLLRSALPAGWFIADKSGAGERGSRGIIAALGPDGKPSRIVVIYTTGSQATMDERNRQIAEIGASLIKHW
# What was measured:
# [1] = biological target: ePDZ-b-ENLYFQ-OFP fusion protein
# [2] = biological target: HIS-ePDZ-b-ENLYFQ-OFP fusion substrate protein
# [3] = biological target: ePDZ-b-WELQ-OFP fusion substrate
# [4] = biological target: T1, Spycatcher-WELQ-Tem1 fusion protein …
# [5] = biological target: Spycatcher-WELQ-LSSmOrange fusion protein
# [6] = biological target: HIS-ePDZ-b-WELQ-OFP fusion substrate protein
protein,measurement,setting,value
"wild-type TEV protease, untagged (protein) GESLFKGPRDYNPISSTICHLTNESDGHTTSLYGIGFGPFIITNKHLFRRNNGTLLVQSLHGVFKVKNTTTLQQHLIDGRDMIIIRMPKDFPPFPQKLKFREPQREERICLVTTNFQTKSMSSMVSDTSCTFPSSDGIFWKHWIQTKDGQCGSPLVSTRDGFIVGIHSASNFTNTNNYFTSVPKNFMELLTNQEAQQWVSGWRLNADSVLWGGHKVFMSKPEEPFQPVKEATQLMNELVYSQ","cleavage of the fusion substrate to native OFP (gel, FIG. 6A)",[1],wild-type TEV protease did not show significant cleavage even after 24 hours incubation
same,"generation of native OFP over time (gel, FIG. 6A)",[1],Native OFP (arrowed red) was rapidly generated through use of TEV-AP4 compared to endogenous TEV
HIS-TEV (protein) GESLFKGPRDYNPISSTICHLTNESDGHTTSLYGIGFGPFIITNKHLFRRNNGTLLVQSLHGVFKVKNTTTLQQHLIDGRDMIIIRMPKDFPPFPQKLKFREPQREERICLVTTNFQTKSMSSMVSDTSCTFPSSDGIFWKHWIQTKDGQCGSPLVSTRDGFIVGIHSASNFTNTNNYFTSVPKNFMELLTNQEAQQWVSGWRLNADSVLWGGHKVFMSKPEEPFQPVKEATQLMNELVYSQ,"yield of native OFP after on-column cleavage (gel, FIG. 8, lanes 6 and 15)",[2],the yield of native OFP was significantly increased when histidine tagged TEV-AP4 was used compared to histidine tagged TEV
TEV protease fused to the optimised 4-amino acid truncated ARVCF peptide (protein) GESLFKGPRDYNPISSTICHLTNESDGHTTSLYGIGFGPFIITNKHLFRRNNGTLLVQSLHGVFKVKNTTTLQQHLIDGRDMIIIRMPKDFPPFPQKLKFREPQREERICLVTTNFQTKSMSSMVSDTSCTFPSSDGIFWKHWIQTKDGQCGSPLVSTRDGFIVGIHSASNFTNTNNYFTSVPKNFMELLTNQEAQQWVSGWRLNADSVLWGGHKVFMSKPEEPFQPVKEATQLMNELVYSQDSWV,"cleavage of the fusion substrate to native OFP (gel, FIG. 6A)",[1],The results show clearly improved cleavage when TEV is fused to the optimised 4-amino acid truncated ARVCF peptide (TEV-AP4)
same,"generation of native OFP over time (gel, FIG. 6A)",[1],Native OFP (arrowed red) was rapidly generated through use of TEV-AP4 compared to endogenous TEV
same,"incubation time to near complete cleavage (gel, FIG. 6A)",[1],near completion around 2.5 hours
same,"incubation time to notable cleavage (gel, FIG. 6A)",[1],Notable cleavage was observed after only 30 minutes incubation
HIS-TEV-AP4 (protein) GESLFKGPRDYNPISSTICHLTNESDGHTTSLYGIGFGPFIITNKHLFRRNNGTLLVQSLHGVFKVKNTTTLQQHLIDGRDMIIIRMPKDFPPFPQKLKFREPQREERICLVTTNFQTKSMSSMVSDTSCTFPSSDGIFWKHWIQTKDGQCGSPLVSTRDGFIVGIHSASNFTNTNNYFTSVPKNFMELLTNQEAQQWVSGWRLNADSVLWGGHKVFMSKPEEPFQPVKEATQLMNELVYSQDSWV,"yield of native OFP after on-column cleavage (gel, FIG. 8, lanes 6 and 15)",[2],the yield of native OFP was significantly increased when histidine tagged TEV-AP4 was used compared to histidine tagged TEV
SplB protease with ARVCF peptide truncated by 4 amino acids (DSWV) (protein) ENNVTKVKDTNIFPYTGVVAFKSATGFVVGKNTILTNKHVSKNYKVGDRITAHPNSDKGNGGIYSIKKIINYPGKEDVSVIQVEERAIERGPKGFNFNDNVTPFKYAAGAKAGERIKVIGYPHPYKNKYVLYESTGPVMSVEGSSIVYSAHTESGNSGSPVLNSNNELVGIHFASDVKNDDNRNAYGVYFTPEIKKFIAENIDKDSWV,"cleavage activity at sub-stoichiometric protease (gel, FIG. 5, lanes 16, 18-19)",[3],"At sub-stoichiometric amounts, 3 and 4 amino acid truncations of the ARVCF peptide showed clear improvements in activity compared to full-length peptide"
same,"cleavage efficiency at high protease concentration (gel, FIG. 5, lanes 2-5)",[3],"At high protease concentration, no variation was observed in cleavage efficiency"
same,"cleavage to yield native OFP (gel, FIG. 5)",[3],These tagged proteases all showed improved cleavage to yield native OFP (red arrow) compared to SplB protease tagged with a non-specific C-terminal peptide (SplB-CON) and commercial nontagged SplB protease (SplB-COM)
SplB protease with shortened ARVC-pep tag (the least shortened of the 3 progressively shortened peptide tags) (protein) ENNVTKVKDTNIFPYTGVVAFKSATGFVVGKNTILTNKHVSKNYKVGDRITAHPNSDKGNGGIYSIKKIINYPGKEDVSVIQVEERAIERGPKGFNFNDNVTPFKYAAGAKAGERIKVIGYPHPYKNKYVLYESTGPVMSVEGSSIVYSAHTESGNSGSPVLNSNNELVGIHFASDVKNDDNRNAYGVYFTPEIKKFIAENIDK,"cleavage efficiency at high protease concentration (gel, FIG. 5, lanes 2-5)",[3],"At high protease concentration, no variation was observed in cleavage efficiency"
same,"cleavage to yield native OFP (gel, FIG. 5)",[3],These tagged proteases all showed improved cleavage to yield native OFP (red arrow) compared to SplB protease tagged with a non-specific C-terminal peptide (SplB-CON) and commercial nontagged SplB protease (SplB-COM)
"Commercial SplB protease, non-tagged (protein) ENNVTKVKDTNIFPYTGVVAFKSATGFVVGKNTILTNKHVSKNYKVGDRITAHPNSDKGNGGIYSIKKIINYPGKEDVSVIQVEERAIERGPKGFNFNDNVTPFKYAAGAKAGERIKVIGYPHPYKNKYVLYESTGPVMSVEGSSIVYSAHTESGNSGSPVLNSNNELVGIHFASDVKNDDNRNAYGVYFTPEIKKFIAENIDK","cleavage of the fusion protein to native Tem1 (gel, FIG. 3)",[4],"Commercial SplB protease, lacking the fused spytag, was only able to produce minimal native Tem1"
same,"cleavage of the fusion protein to native LSSmOrange (gel, FIG. 4)",[5],A similar experiment with LSSmOrange replacing Tem1 yielded the same result
same,"cleavage of the fusion substrate to native OFP (gel, FIG. 5)",[3],Neither SplB-COM or Spl-CON was able to completely digest the fusion substrate
SplB protease with full-length ARVCF peptide tag at C-terminus (protein) ENNVTKVKDTNIFPYTGVVAFKSATGFVVGKNTILTNKHVSKNYKVGDRITAHPNSDKGNGGIYSIKKIINYPGKEDVSVIQVEERAIERGPKGFNFNDNVTPFKYAAGAKAGERIKVIGYPHPYKNKYVLYESTGPVMSVEGSSIVYSAHTESGNSGSPVLNSNNELVGIHFASDVKNDDNRNAYGVYFTPEIKKFIAENIDKPQPVDSWV,"cleavage efficiency at high protease concentration (gel, FIG. 5, lanes 2-5)",[3],"At high protease concentration, no variation was observed in cleavage efficiency"
same,"cleavage of the fusion substrate to native OFP (gel, FIG. 5)",[3],this was notably more efficient for SplB-AP compared to SplB-COM and SplB fused to a control peptide that does not interact with ePDZ-b (SplB-CON)
same,"cleavage to yield native OFP (gel, FIG. 5)",[3],These tagged proteases all showed improved cleavage to yield native OFP (red arrow) compared to SplB protease tagged with a non-specific C-terminal peptide (SplB-CON) and commercial nontagged SplB protease (SplB-COM)
HIS-SplB-ARVC-pep (protein) ENNVTKVKDTNIFPYTGVVAFKSATGFVVGKNTILTNKHVSKNYKVGDRITAHPNSDKGNGGIYSIKKIINYPGKEDVSVIQVEERAIERGPKGFNFNDNVTPFKYAAGAKAGERIKVIGYPHPYKNKYVLYESTGPVMSVEGSSIVYSAHTESGNSGSPVLNSNNELVGIHFASDVKNDDNRNAYGVYFTPEIKKFIAENIDKPQPVDSWV,"on-column cleavage to native OFP (gel, FIG. 7)",[6],"Addition of 30 mM imidazole alleviated this constraint, resulting in improved cleavage efficiencies using histidine tagged ePDZ-b -WELQ-OFP and SplB-AP proteins"
